Test results reported in the DeepSol protein solubility set.

experiment: soluble on expression in E. coli; label from the status in PepcDB or PDB records

Row | Sequence | soluble on expression in E. coli
1 | MINKTKRLMVPRTVKIPRKTYFWGPTPLPGRHKADHSVTLLTIIRDYLRLSDKEREATRILANGLVKVDGKVVKERKFGVGFMDVIEISGESYRVVYNNQGALVLVSESKDRANMKPLQVKNKVIAPGNKIQLGFHDGRVMVTEDRSISVGDVVIASLPDMKITEIIKMQPGNKAFITGGSHVGETGTISKIEIKESSSANLVHFDEGFTTVKDHVFVIGSPRFTFTMPSGEVYPLEHHHHHH | not soluble
2 | MINLSNLSAVATSVARAALGESNTSKINHAFDVASHIAGQTALRVGNSLLEQINRLNERQQQGLSEILKALRGEKPVDGVHTHSGGGLFKLARAAFDVVSVVWERDKLKPHVMSFLKALDSQGKTLFSLGKEMAKAFAESVQGPDKNNGKTESSPYASFASKVGMSKVVQRLFNELGRPGAERVRRPTSGPAPRPGGAEQQARPETPPRTRPQANGAPPPPPKAEPRPSSGRPGGAQQQARPETPPRSRPQTNSAPPPPRAEPRPASGRPGGAQQQARPETPPRSRPQTNSAPPPPKAEPRPSSGRPGGAQQQARPETPPRSRPQTNNAPPPRSNNTAGASASAKVGESGPAKPAVKPLYEWLGLSDMTASPAAVKKAYYNASMKHHPDKNPGDAGATARFQDISNAFSILSDPEKRKAYDSGRMNEKGQYV | not soluble
3 | MINSKKELRKNMVLKRDSLEPDLKSIKDNMIYNKVINSIQYKSANNIFVFVSYKSEVDTHNIIRTAIADGKKVFVPKVISKEKGMEAAEIRGFFDLEKSAYGILEPKSSNYIEPESIELLLVPGLAFDESGGRIGYGGGFYDRYMSLLDKSAVKVGICYDFQVIDKVIMNINDVPVDKIIVGLEHHHHHH | not soluble
4 | MINVEQVFALDIGTRLVMGLIMEKAPGGYHIIARAQTEHRQRAMYDGQIHDIEEVAQAVQRVKEELEEKIKGKLHYVSVAAAGRALKTAVATAQKSELIPMIWEREDIFALEMEAVQQALREIQAEDEIIPYHCVGYSTIESLLEGQNLSSLSGQRGKEAQVKVIATFLPRTVIDGLTRVISKVGLEMRELTLEPIAAGRAAIPPDMRRMNLALVDVGAGTSDIALTKSGSFFAYGMVPMAGDEITERICQHFLVDFQTGEKIKRSLNTKTKVTFTDFLGMKTTVNKEEVLEQIQPVVLELAQKLADEILRLNQGNPHAIILIGGGSQTPLLAEVLSDLLELPRNRVGIQVRERIQGVSGEKSLKGPDAITPIGIGISTIEGEGLQYFSVHVNDLTVQIFELQLATVSDALLAAGITPRLLVGRPGSALTVELNGDIKVSKGQFSKPAQFFLNGEEVKLDHELKPGDKIQFIPAQDGENAQATFADLVPAIPEKKIKVNGESVVFTAQIFCNGRPVTRDGDVPDGAKITVFQNQTLKDLLHFLNDKQYSLSEIRYKINGEERVIPIHKEFYINQQKVALERMIKDGDDLVILVKEVYIKDLQLKPTPMVFYVNGQEVEYPPQIFRILSRGRVLSDQEKVVDGMELSVEGYDTMPLLSELLPYVNIPQDVPANARLSLKRNNQEAEFTTPLIPGDRIEIHWEQVASALLEHHHHHH | soluble
5 | MIPGGNTLKETAVVPAATGYDRIAFIYDIIAGIASFDQINKSQLAFLSSIPTQSTCLILGGGTGYFLQKLLEQNATIQVTYVDASQKMIEFAQKRIAEKKPYDAHRVTFVCKQVNVFEFDTYDSIVCNYFLDLFEEADVTMLIKKFKKHLKKDGILYITDFTMPIRTGIIEWSAKAGLKVLYWFFKRTTSLSNNQLPDIESVVLKQDFIKLHSADFFKGILRCSLYR | not soluble
6 | MIPGSTSGISFSRILSRQTSHQDATQHTDAQQAEIQQAAEDSSPGAEVQKFVQSTDEMSAALAQFRNRRDYEKKSSNLSNSFERVLEDEALPKAKQILKLISVHGGALEDFLRQARSLFPDPSDLVLVLRELLRRKDLEEIVRKKLESLLKHVEEQTDPKTLKAGINCALKARLFGKTLSLKPGLLRASYRQFIQSESHEVEIYSDWIASYGYQRRLVVLDFIEGSLLTDIDANDASCSRLEFGQLLRRLTQLKMLRSADLLFVSTLLSYSFTKAFNAEESSWLLLMLSLLQQPHEVDSLLADIIGLNALLLSHKEHASFLQIFYQVCKAIPSSLFYEEYWQEELLMALRSMTDIAYKHEMAEQRRTIEKLS | not soluble
7 | MIPKAFDGVKLLQFSDLHLGHYDSLERFYRIINQINKLQPDIVVFTGDLLHEANRYPHTEEVADALASIRAPLGKFSVYGNHDHGGYGTDIYRRLMERAGFRVLVNEHALVRRGQERIAVAGGDDMMLGQPDWAKMTSGIPASTYTIALVHEPDGALETCRYPIHVQLSGHSHGGQIQLPFIGPLITPPLSERYYEGFYHVGGLVLYVNRGLGTTRVPLRFFAPPELTVFSLIHRLEHHHHHH | not soluble
8 | MIPMSETKNELEILLEKAATEPAHRPAFFRTLLESTVWVPGSAAEGEAIVEDSALDLQHWEKEDGTTVIPFFTSLEALQQAVEDEQAFVVMPARTLFEMTLGETLFLNAKLPTGKEFMPREISLLLAEEGSPLSTQEVLEGGESLILSEVAEPPSQMIDSLTTLFKTIKPVKRAFLCAIKEHADAQPNLLIGIEADGEIEEIIHAAGNVATDTLPGDEPIDICQVRKGEQGISHFITEHIAPFYERRWGGFLRDFKQNRII | not soluble
9 | MIPPEIRRSVLLQKAIKLALAGTLLTFASFSATAADPSSDTETPQPPDILLGPLFNDVQNAKLFPDQKTFADAIPNSDPLMILADYRMQRNQSGFDLRHFVDVNFTLPKAGEKYVPPAGQSLREHIDGLWPVLTRSTKNVEKWDSLLPLPESYVVPGGRFREIYYWDSYFTMLGLAESGHWDKVADMVANFGYEIDAWGHIPNGNRTYYLSRSQPPFFAFMVELLAQHEGDDALKEYLPQLQKEYAYWMEGVETLQPGQQNQRVVKLEDGSVLNRYWDDRDTPRPESWVEDIATAKSNPNRPATEIYRDLRSAAASGWDFSSRWMDNPQQLSTIRTTTIVPVDLNALLYQLEKTLARASAAAGDRAKASQYDALANARQKAIEMHLWNNKEGWYADYDLQNNKIRDQLTAAALFPLYVNAAAKDRAVKVAAAAQAHLLQPGGLATTSVKSGQQWDAPNGWAPLQWVAAEGLQNYGQDDVAMEVTWRFLTNVQHTYDREKKLVEKYDVSSTGTGGGGGEYPLQDGFGWTNGVTLKMLDLICPQEKPCDSVPSTRPASLSATPTKTPSAATQLEHHHHHH | not soluble
10 | MIQEPARVQAAPTFEATIREDNAKYQETAAGGTYSSPNCSCSQRRTRPTEPTKDSPTSTITTIPIVIDSKPNPRILLIRVPTSNRGSNSNNNSNSTRSGTEHRAPRTRIIRIPFLPGSVPTRPPSNQAAPATSSLVNPIGSARRCRISTYPTTGTLTSRSQPETVAGLPTTAMVNQTVPVLSSAPQTQTLAAMAGIQLTGADEPPSRRDVSGAMPTATVEEIDVPVFIDEYLQDIEATSSTCNSENGKEIFTETDILDFDINMFAEEDLIELEGKKTDPFSPAMDGMNNDNLDDDFLQLNDLLNEEETFDMSSMSGVGIDINQEQELDFINIFHNSQPTAMLTSSEDPYLATYSQATSTSSTTKFITEEPLLADMTSFDISYTSSQELGFGLVEDVSGSFASSCSDVAAAIPAPIQHPIITNIKRSAPAPVESQPTKRSRLMLQIKTELAPAFSPTTPEIINQLLNDDRFEAPTTSTSTSTSNTSISSSTHADIVEDLRSAEEETTTDFSAPNTPHSNYSASSSCAAPTCQTGYGGFLTAPTSPAYSTASTSVFSPSPASGISGKRKRGRPAKDHADGPDPVLMSSMKSEEERKAYQDRLKNNEASRVSRRKTKVREEEEKRAEDTLLAENLRLRARADEVASRERKFKKYLMERQRQKSTYVKQEQD | not soluble
11 | MIQHTMLKLYWANFTTAQLHHLTSTYPDFLSENVFHQHDMIKRWLTERNSERLWNKYERFKELKLMDIIKEMKKANVSFTTYFDDNYPSLCKEMYDYPYVIFYKGNPQFFNHSHSLAVIGSRNATQYTSQSLNYLFPSFRQLNMAIVSGLARGADSVAHQTALKYLLPTIGVLGFGHCYHYPKATLNLRTKVERNGLVISEYPPFSPISKHKFPERNRLISGLSRGVLITEAEERSGSQITIDCALEQNRNVYVLPGSMFNKMTKGNLRRINEGAQVVIDESSILYDYLF | not soluble
12 | MIQLIATPSNALVDEPVSIRATGLPPSQIVTIKATVKDENDNVFQSQAFYKTNEAGEVDLEKTPALGGDYVGVHPMGLFFSLKPKKAFHRLMKKDVMNSPLCICLDLYDSVNWLETVRIPSKASQRVQRWFVGPGVKREQIQEGRVRGALFLPPVEFRASLLASHGFAVLALAYFAYEDLPEKPQEVDLEYFEEAANFLLSHPKIQQPGIGVISTSKGAEIGLAMACYLKQVIATVCINGPTTITIFPLRYQDLVMTPIHPALERIQVHDSGALLFRYTTQYLHNKLNSQNILPVEKAQGKILFIVGENDECLDSKLHAQKAMDRLQRHGRSSGRMLAYPGAGHLIEPPYSPVCFVAWFPVLGQPMCFGGDLMAHAAAQEHSWREIQKFFRKHLLQSGSKL | not soluble
13 | MIQLNLPPYEHRIHQEDESMFIFDSIRRRYVALTPEEWVRQHFVHYLTDVLGYPADLIRNEAQLRIDRRRKRCDTVVYDTNLRPIVLCEYKAPTVSLTQKTMDQILCYNFIFRVPLLLLSNGLQHAACLVDYEQSGYVFLPEIPSYEELTTIIQSNQ | not soluble
14 | MIRHLEFKSRTRTDMIDITSAVQEQVRSAAVRNGVCHLFVLHTTAGITINEGADPAVQRDMVNFLDRLVPIDPYFTHAEGNSDAHIKSTLTGTSLTVFIVEGKLLLGSWQSIYLCEFDGPRHRRVAVKVVPDPLEHHHHHH | not soluble
15 | MIRMAQNNKELEKLAYEYQVLQAQAQILAQNLELLNLAKAEVQTVRETLENLKKIEEEKPEILVPIGAGSFLKGVIVDKNNAIVSVGSGYAVERSIDEAISFLEKRLKEYDEAIKKTQGALAELEKRIGEVARKAQEVQQKQSMTSFKVKK | soluble
16 | MIRVACVGITVMDRIYYVEGLPTESGKYVARNYTEVGGGPAATAAVAAARLGAQVDFIGRVGDDDAGNSLLAELESWGVNTRYTKRYNQAKSSQSAIMVDTKGERIIINYPSPDLLPDAEWLEEIDFSQWDVVLADVRWHDGAKKAFTLARQAGVMTVLDGDITPQDISELVALSDHAAFSEPGLARLTGVKEMASALKQAQTLTNGHVYVTQGSAGCDWLENGGRQHQPAFKVDVVDTTGAGDVFHGALAVALATSGDLAESVRFASGVAALKCTRPGGRAGIPDCDQTRSFLSLFV | not soluble
17 | MIRVKRLDHVQICIPFGAEDEARAFYTGVLGFQEIEKPESLKGNGGLWYKVGDIQLHIGAENRDGYNSKSHPAFEVEDVEAARRYLEEHGVATQDEKPIPGVKRFSFRDPFRNRIELLEKIM | not soluble
18 | MIRYWKLLFSLAVASVLLVGCGTKEHETTQAAKEEQTADDQKPSSDAPSSKNPSPSKEAKEQTSTKKNEEEQRAAGGGQPAASQPTISLSYQDGNQTVTKTATLQTSNNQHFSLYVLEGWTLDAEEPGADVLLHGDAFARIRLLSEGETNYEQLAQEHAQAVDANAARQQTNGLPKPFADAVWYTAQADGVTVHVIASAQPTPMLLTVHAPSNEDVLGAVLAMAATLQKQ | not soluble
19 | MISAFDIFKIGIGPSSSHTVGPMNAGKCFIDRLIDSGDLPRTTRITVDLYGSLSLTGKGHATDTAVIMGLAGNTPQDVNIDSIPAFIQEVARSSRLSVAGGAHVVDFPVADSIFFHAETLARHENGMRITAWNGQAPLLHKTYYSIGGGFIVEEERFGQSHDVEKSVPYDFHSASELLTLCERQGLSVSGLMMQNELALRSKEQIDAGFARIWQVMATGIERGMNTEGVLPGPLNVPRRAVALRRLLVSSDNLSRDPMNVIDWINMFALAVSEENAAGGRVVTAPTNGACGIIPAVLAYYDKFRRPVNANSIARYLLSAGAIGMLYKMNASISGAEVGCQGEVGVACSMAAAGLTELLGGSPAQVCIAAEIAMEHNLGLTCDPVAGQVQIPCIERNAINAVKAVNAARMALRRTSEPRVSLDKVIETMYETGKDMNDKYRETSRGGLAIKVVCG | not soluble
